Where a chain is given by its changes, count along the chain named.
B1: VACV-303 (antibody, V domains shown)
VH: EVQLLESGGGLVQPGGSLRLSCAASGFTFSSYAMSWVRQAPGKGLEWVSAISGTGGNTYYADSVKGRFTISRDKSKNTLYLQMHSLRAEDTAVYYCATSLIWWLQSDYWGQGTLVTVSS
VL: DIQMTQSPSSLSASVGDRVTITCRASQSIASYLIWYQQKPGNAPKLLIYAASSLQSGVPSRFSGSGSGTDFTLTISSLQPEDFATYYCQQSYSTPQTFGQGTKVDIK
B2: VACV-154 (antibody, V domains shown)
VH: EVQLLESGGGLVQPGESLRLSCAASGFTLRNYAMSWVRQTPGKGLEWVSAISGSGGSTYYADSVKGRFTISRDTSKNTLYVQMNSLRAEDTAVYYCAKIRLDSSGYSGAFDIWGQGTRVTVSS
VL: SYELTQPPSVSVSPGQTARITCSGDALPKQYASWYQQKPGQAPVLVIYKDSERPSGIPERFSGSSSGTTVTLTISGVQAEDEADYYCQSADSSGTYPVVFGGGTQLTVL
B3: VACV-300 (antibody, V domains shown)
V domain 1: QVQLVQSGAEVKKPGSSVKVSCKASGGTFSSYAISWVRQAPGQGLEWMGGIIPIFGTANYAQKFQGRVTITADESTGTAYMELTSLRSEDTAIYYCARASEQWLASINWFDPWGQGTLVTVSS
V domain 2: QSALTQPASVSGSPGQSITISCTGTSSDVGSYNLVSWYQQHPGKAPKLMIYEVSKRPSGVSNRFSASKSGNTASLTISGLQAEDEADYYCCSYAGSSTLVFGGGTQVTVL
B4: MPXV-83 (antibody, V domains shown)
VH: QVQLVESGGGVVQPGRSLRLSCAASGFTFSSYSMHWVRQAPGKGLEWVAVISFDGRSNYYADSVRGRFTISRDNSKKTMYLQMNSLRLADTAVYYCARGGIGAPDPRNGLEVWGRGAPVTLSS
VL: DIQMIQSPSSLSASVGDRVTISCQATQDISNSVNWYQQKPGKAPKLLIYDASTLETGVPSRFSGGGSGTHFTFTISSLQPEDIATYYCQQFHSLPPTFGQGPKGISK
B5: VACV-33 (antibody, V domains shown)
VH: QLQLQESGPGLVKPSETLSLTCTVSGGSISSGGYYWGWIRQPPGKGLEWIASIYYSGSTYYNPSLKSRVTISVDTSKTQFSLKLSSVTAADTAVYYCARQSSSTGGFHYWGQGTLVTVSS
VL: QSVLTQPPSVSGAPGQRVTISCTGSSSNIGAGYDVHWYQHLPGTAPKLLIYGNSNRPSGVPDRFSGSKSGTSASLAITGLQAEDEANYYCQSYDSSLSGREVFGGGTQLTVL
B6: MPXV-26 (antibody, V domains shown)
VH: QVQLVQSGGGLIQPGGSLRLSCVVSGFNVATNYMSWVRQAPGKGLEWVSVIYSGGSTYYADSVKGRFTISRDNSKNTVFLQMNSLRPEDTAAYYCAKGGGLGLDYWGQGTLVTVSS
VL: QSALTQPPSASGSPGQSVTITCTGSSSDVGGYNYVSWYQQHPGKAPKVVIYEVNKRPSGVPHRFSGSKSGNTASLTVSGLQAEDEADYYCSSYAGTETVAFGGGTKLTVL
B7: VACV-136 (antibody, V domains shown)
V domain 1: QVTLKESGPVLVNPTETLTLTCTVSGFSLSNARMRVSWIRQPPGKALEWLAHIFSNDEKSYSTSLKSRLTISKDTSKSQVVLTMTNMDPVDTASYYCARMRGEYNSYYFDSWGQGTLVTVS
V domain 2: SYELTQPPSVSVSPGQTARITCSGDALPNQYAYWYQQKPGQAPVLVIYKDSERPSGIPERFSGSSSGTTVTLTISGVQAEDEADYYCQSADSSGTSVVFGGGTQVTV
B8: VACV-128 (antibody, V domains shown)
VH: EVQLVQSGAEVKKPGATVKISCKVSGYTFTDYYMHWVQQAPGKGLKWMGLLDPLDGETIYSEKFQGKVTITADTSTDTAYMELSSLRSEDTAVYYCARELTGYLNYWGQGTLVTVSS
VL: DIQMTQSPSSLSASVGDRVTITCRASPGICNYLAWYQHKPGKVPKLLIYAASTLQSGVPSRFTGVGSGTNFTLTINNLPPENVATYYCQKYNSAPHTFGQGTKVDIK
B9: VACV-304 (antibody, V domains shown)
VH: EVQLVESGGGLVQPGGSLRLSCVVSGFTFSNYWMSWVRQAPGKGLEWVANIKQDGSKKYYVDSVTGRFTISRDNAKNSLYLQMNSLRAEDTAVYYCATLNLELAVDAISEALKWGQGTLVTVSS
VL: SYELTQPPSVSVSPGQTARITCSGDALPKQFAYWYQQKPGQAPVVMIYKDSERPSGIPERFSGSSSGTTVTLTISGVQAEDEADYYCQSVDNSGTYEVFGGGTQLTVL
B10: VACV-8 (antibody, V domains shown)
VH: QVQLQQWGAGLLKPSETLSLTCAGYGGSFSGYFWSWIRQPPGKGLEWIGEINHSGSTDYNPSLKSRVTISLDTSKTQFSLKLSSVTAADTAVYYCARVMTGITNYYYYYGMDVWGQGTTVTF
VL: DIQLTQSPSFLSASVGDRVTITCRASQDISSYLAWYQQKPGKAPKLLIYAASTLQSGVPSRFSGSESGTEFTLTISSLQPENFATYYCQHLNSYPRGYTFGQGTKVDIK
B11: MPXV-27 (antibody, V domains shown)
VH: QVQLQQWGAGLLKPSETLSLTCDVYGGSFSGYYWSWIRQPPGKGLEWIGEINHSGSTTYTPSLRSRVTISVDTSKNQFSLKLSSVTAADTAVYYCARVLSGWLPFPNYYYYMDVWGKGTTVT
VL: DIQMTQSPSSLPASVGDRVTITCRASQDIRNNLGWYQQKPGKAPERLIYGTSNLQSGVPSRFSGSGSGTEFTLTISSLQPEDFATYYCLQHNSYPPTFGRGTKVEIK
B12: MPXV-39 (antibody, V domains shown)
VH: QVQLQQWGAGLLKPSETLSLTCAIYGGSLSGQYWSWIRQPPGRGLEWIGEIHHKGRTNYNPSLKSRVTISIDTSQRQFSLRLTSVSAADTAVYYCASGNYRLGQGTLVTF
VL: DVVLTQSPLTLPVTLGQPASISCRSSQSLVYSDGDTYLNWFQQRPGQAPRRLIYKVSKRDFGVPDRFSGSGSGTDFTLRISRVEAEDVGVYYCMQGTHWPRTFGQGTQVDIK
B13: MPXV-96 (antibody, V domains shown)
VH: QVQLQQWGAGLLISSETLSLTCGVYGGSFSGYYWTWIRQPPGKGLEWIGEINYVGSTNYNPSLKSRVTMSVDTSKNHFSLSLSSVTAADTAVYYCARGLRGNSVCFDWGPGTLV
VL: ELVMTQSPATLSVSPGERASLSCRASQSVSSNLAWYQQKPGQAPRLLIYGASTRATGLPARFSGSGSGTEFTLTISSLQSEDFAIYYCQQYNNWPRTFGQGTKVDI
B14: VACV-117 (antibody, V domains shown)
VH: QVQLVQSGAEVKKPGASVKVSCKASGYTFTSYDINWVRQATGQGLEWLGWMNPNSGNTKSAQKVKGRVTMTRDTSISTAYMELSSLRSEDTAVYYCARTPFDDIGYYYWGQGTLVTVS
VL: DIVMTQSPLSLSVTPGEPASISCRSSQSLLHSNGYNYLDWYLQKPGQSPQLLIYLGSNRASGVPDRFIGSGSGTDFTLKISIVEAEDVGVYYCMQALQTPGAFGPGTKVDIK
B15: VACV-159 (antibody, V domains shown)
VH: QLQLQESGPGLVKPSETLSLTCTVSGGSISSSSYYWGWIRQPPGKGLEWIGSIYYRGSTYYNPSLKSRITISVDTSKNQFSLKLRSVTAADTAVYYCARHLRVLLWFGELLEWGQGTTVTVSS
VL: QSALTQPPSVSGAPGQRVTISCTGSSSNIGADYDVHWYQQLPGTAPKLLIYGNSNRPSGVPDRFSGSKSGTSASLAITGLQAEDEADYYCQSHDSSLSGYVFGTGTKVTVL
B16: MPXV-61 (antibody, V domains shown)
V domain 1: QVQLVQSGAEVKKPGSSVKVSCKASGETFSRYAFSWVRLAPGQGLEWLGRIIPFIDIPNYAQKFQGRVTITADKSTSTAYMELSSLRSEDTAVYYCASSLPSTYYFGSGNYPWGNWLDPWGQGTLVTVSS
V domain 2: QSVVTQPPSVSAAPGQNVTISCSGSSSNIGNNYVSWYHQLPGTAPKLLIYDNDKRPSGIPDRFSGSKSGTSATLGITGLQTGDEADYYCGTWDSSLSEVVFGGGTQVTVL
B17: VACV-66 (antibody, V domains shown)
VH: QLQLQESGPGLVKPSETLSLTCTVSGDSISSNNYYWGWIRQPPGKGLEWIGSIYYSGSTYYNPSLKSRVTISVDTSKNQFSLKLSSVTAADTAVYYCARHRRVLLWFGEFQLWGQGTLVTVSS
VL: B15 VL with D32G, S54I, H93Y, Y100A, V101L, T104G, K107Q, V108L

What follows are binders tested against MPXV ortholog of the A27 VACV protein (monkeypox virus) (assay: purified antigen ELISA).

Row | Binder | EC50
1 | B1 | 0.02 µg/mL
2 | B2 | 0.06 µg/mL
3 | B3 | 0.14 µg/mL

What follows are binders tested against VARV ortholog of A27 (variola virus) (assay: purified antigen ELISA).

Row | Binder | EC50
4 | B1 | 0.16 µg/mL
5 | B2 | 0.3 µg/mL
6 | B3 | 0.79 µg/mL

Each binder was assayed against VARV ortholog of L1 (variola virus) (assay: purified antigen ELISA).

Row | Binder | EC50
7 | B4 | 0.065 µg/mL
8 | B5 | 0.02 µg/mL
9 | B6 | 0.02 µg/mL

The binders below were run against MPXV ortholog of the A27 VACV protein (monkeypox virus) (assay: cell-based or functional assay).

Row | Binder | PRNT Emax, MPXV MV | PRNT Emax, MPXV MV+C' | PRNT IC50, MPXV MV | PRNT IC50, MPXV MV+C'
10 | B1 | 51% | 64% | 25 µg/mL | 15 µg/mL
11 | B2 | 66% | 69% | 15 µg/mL | 14 µg/mL

Each binder was assayed against CPXV ortholog of D8 (cowpox virus) (assay: cell-based or functional assay).

Row | Binder | PRNT Emax, CPXV MV+C' | PRNT IC50, CPXV MV+C'
12 | B7 | 75% | 0.2 µg/mL
13 | B8 | 71% | 0.3 µg/mL
14 | B9 | 79% | 0.1 µg/mL
15 | B10 | 58% | 2 µg/mL
16 | B11 | 75% | 0.08 µg/mL

The binders below were run against CPXV ortholog of L1 (cowpox virus) (assay: cell-based or functional assay).

Row | Binder | PRNT Emax, CPXV MV | PRNT Emax, CPXV MV+C' | PRNT IC50, CPXV MV | PRNT IC50, CPXV MV+C'
17 | B4 | 69% | 78% | 0.2 µg/mL | 0.1 µg/mL
18 | B5 | 74% | 75% | 0.5 µg/mL | 0.2 µg/mL
19 | B6 | 99% | 93% | 0.07 µg/mL | 0.2 µg/mL

What follows are binders tested against MPXV ortholog of L1 (monkeypox virus) (assay: cell-based or functional assay).

Row | Binder | PRNT Emax, MPXV MV+C' | PRNT IC50, MPXV MV+C' | PRNT Emax, MPXV MV | PRNT IC50, MPXV MV
20 | B4 | 67% | 12.5 µg/mL |  | 
21 | B5 |  |  | 50% | 70 µg/mL
22 | B6 | 97% | 6.2 µg/mL | 96% | 3 µg/mL

What follows are binders tested against MPXV ortholog of A33 (monkeypox virus) (assay: cell-based or functional assay).

Row | Binder | PRNT Emax, MPXV EV+C' | PRNT IC50, MPXV EV+C'
23 | B12 | 56% | 100 µg/mL

The binders below were run against MPXV ortholog of the A27 VACV protein (monkeypox virus) (assay: lysate ELISA).

Row | Binder | EC50
24 | B1 | 0.004 µg/mL
25 | B2 | 0.02 µg/mL
26 | B3 | > 0.68 µg/mL

These binders were tested against CPXV ortholog of D8 (cowpox virus) (assay: lysate ELISA).

Row | Binder | EC50
27 | B13 | 0.003 µg/mL
28 | B7 | 0.05 µg/mL
29 | B8 | 0.25 µg/mL
30 | B14 | 0.01 µg/mL
31 | B15 | > 28 µg/mL
32 | B9 | 0.05 µg/mL
33 | B10 | 0.1 µg/mL
34 | B11 | 0.02 µg/mL
35 | B16 | 0.009 µg/mL

These binders were tested against CPXV ortholog of L1 (cowpox virus) (assay: lysate ELISA).

Row | Binder | EC50
36 | B4 | 0.03 µg/mL
37 | B5 | 0.06 µg/mL
38 | B6 | 0.05 µg/mL

What follows are binders tested against CPXV ortholog of A27 (cowpox virus) (assay: lysate ELISA).

Row | Binder | EC50
39 | B1 | 0.004 µg/mL
40 | B2 | 0.02 µg/mL
41 | B3 | 0.06 µg/mL

These binders were tested against MPXV ortholog of D8 (monkeypox virus) (assay: lysate ELISA).

Row | Binder | EC50
42 | B13 | 0.001 µg/mL
43 | B7 | 0.04 µg/mL
44 | B14 | > 26 µg/mL
45 | B17 | > 0.3 µg/mL
46 | B15 | > 14 µg/mL
47 | B9 | 0.1 µg/mL
48 | B10 | 0.06 µg/mL
49 | B11 | 0.02 µg/mL
50 | B16 | 0.004 µg/mL

Each binder was assayed against MPXV ortholog of A33 (monkeypox virus) (assay: lysate ELISA).

Row | Binder | EC50
51 | B12 | > 47 µg/mL
